From patent publication US20100255010A1 (Genentech, published 2010)
Changes are numbered by the printed parent chain.

B1: D1.5-115, mIgG2A (antibody, V domains shown)
VH: EVQLVESGGGLVQPGGSLRLSCAASGFTFTGNWIHWVRQAPGKGLEWVGEISPSGGYTDYADSVKGRFTISADTSKNTAYLQMNSLRAEDTAVYYCARESRVSYEAAMDYWGQGTLVTVSS
VL: DIQMTQSPSSLSASVGDRVTITCRASQEIFPDVAWYQQKPGKAPKLLIYSASSLYSGVPSRFSGSGSGTDFTLTISSLQPEDFATYYCQQAAPTPYTFGQGTKVEIKR
B2: D1.5-116, mIgG2A (antibody, V domains shown)
VH: B1 VH
VL: B1 VL with E28A, F30A, P31S, S53F, A91S, A92E, T94E
B3: D1.5-121, mIgG2A (antibody, V domains shown)
VH: B1 VH
VL: B1 VL with E28D, I29V, F30G, P31S, V33L, S53Y, A91S, A92D, T94E
B4: D1.5-113, mIgG2A (antibody, V domains shown)
VH: B1 VH
VL: DIQMTQSPSSLSASVGDRVTITCRASQSLLASHDGTPWVAWYQQKPGKAPKLLIYDASYLYSGVPSRFSGSGSGTDFTLTISSLQPEDFATYYCQQSTFAPYTFGQGTKVEIKR
B5: DL11b (bispecific antibody, V domains shown)
VH: B1 VH with F29L, T30S, N32D, V48L, P53A, S54A, Y104F
VL: B1 VL with E28N, F30A, P31T, S53F, A91S, A92E, T94E

What was measured:
HER3-ECD-Fc = biological target: T1, HER3-ECD-Fc (human, UniProt P21860 20-643, limits assumed); test: radioligand blocking assay: antibody pre-bound to captured HER3-ECD-Fc, then 125I-HRG added; bound counts as % of control
T1 construct: extracellular domain; also called HER3-FC; HER3-IgG

[1] = biological target: HER3 (form of the protein in the assay not stated) (UniProt P21860 20-643, limits assumed); test: SPR BIAcore

Row | Binder | IC50 (read off the curve) (HER3-ECD-Fc) [nM] | binding result [1]
1 | B1 | ~3 | 
2 | B2 | ~4 | 
3 | B3 | ~5 | 
4 | B4 | ~3 | 
5 | B5 |  | binds
